Experimental data from article PMC12363188 (2025).

Key:
[1] = target: T1, SARS-CoV-2 S-RBD (residues 330 to 530) (SARS-CoV-2, UniProt P0DTC2 330-530); assay: SPR
[2] = target: T1, SARS-CoV-2 S-RBD (residues 330 to 530); assay: SPR; remark: listed apart in the source

B1: Rhinolophus pusillus bat ACE2 ectodomain (residues 18 to 615) (domain or fragment)
chain: QSITEDKAKKFLNDFNSEAEDLSYQSSLASWDYNTNISDENVQKMDEAGAKWSAFYEEQSKIAKNYPLEEIQTDIVKRQLQILQQSGSPVLSEDKSKRLNSILNAMSTIYSTGKVCKPNNPQECLLLEPGLDNIMGTSKDYHERLWAWEGWRAEVGKQLRPLYEEYVVLKNEMARGYHYEDYGDYWRRDYETEESSGPGYSRDQLMKDVDRIFTEIKPLYEHLHAYVRAKLMDTYPLHISPTGCLPAHLLGDMWGRFWTNLYPLTVPFGQKPNIDVTDEMVKQGWDANRIFKEAEKFFVSVGLPNMTEGFWNNSMLTEPGDGRKVVCHPTAWDLGKGDFRIKMCTKVTMEDFLTAHHEMGHIQYDMAYASQPYLLRNGANEGFHEAVGEVMSLSVATPKHLKTMGLLSPDFREDDETEINFLLKQALNIVGTLPFTYMLEKWRWMVFKGEIPKEEWMKKWWEMKREIVGVVEPVPHDETYCDPASLFHVANDYSFIRYYTRTIFEFQFHEALCRIAQHNGPLHKCDISNSTDAGKKLHQMLSVGKSQAWTKTLEDIVGSRNMDVGPLLRYFKPLYTWLQEQSRKSYVGWNTDWSPYSD
[1]
  koff: 0.00152 s⁻¹
[2]
  Kd: 45.3 nM
